Measured values published in patent US20150344570A1 (published 2015).

Tests used:
[1] = target: T1, FcγRIIIa extracellular domain with C-terminal His tag (human, UniProt P08637 17-208); assay: SPR (Biacore), antibody captured on antigen-peptide chip, FcγR as analyte; relative binding amount
T1 construct: extracellular domain; also called FcgRIIIa; 3a; not shown: His tag at the C terminus
Protocol: (§1) The heterodimerized antibodies He Abs in which one of the H chains was introduced with an alteration were assayed for their binding activities to each activating FcγR and inhibitory FcγR according to the method described in Example 4. […] The activating FcγRs in FIGS. 26, 27, 28, and 29 are FcγRIa, FcγRIIa (R), FcγRIIa (H), and FcγRIIIa, respectively.
(§2) Analysis of interaction between objective antibody and the FcγR was carried out using Biacore T100 (GE Healthcare). HBS-EP+ (GE Healthcare) was used as the running buffer, and the measurement temperature was set to 25° C. Chips produced by immobilizing the antigen peptide by the amine coupling method to a Series S Sencor Chip CM5 (GE Healthcare), or alternatively, chips produced by allowing preliminarily biotinylated antigen peptides to interact with and immobilize onto a Series S Sensor Chip SA (certified) (GE Healthcare) were used. Antibodies of interest were captured onto an antigen peptide-immobilized chip, and allowed to interact to each FcγR diluted with running buffer. To regenerate and repeatedly use the chip, the antibodies captured on the chip were washed off by reacting 10 mM glycine-HCl, pH 1.5.

[2] = target: T2, FcγRIIb extracellular domain with C-terminal His tag (human, UniProt P31994 43-217); assay: as above
T2 construct: extracellular domain; Soluble receptor expressed in FreeStyle293 cells and used as analyte in Biacore; also called FcgRIIb; 2b; not shown: His tag at the C terminus
T2 sequence (looked up): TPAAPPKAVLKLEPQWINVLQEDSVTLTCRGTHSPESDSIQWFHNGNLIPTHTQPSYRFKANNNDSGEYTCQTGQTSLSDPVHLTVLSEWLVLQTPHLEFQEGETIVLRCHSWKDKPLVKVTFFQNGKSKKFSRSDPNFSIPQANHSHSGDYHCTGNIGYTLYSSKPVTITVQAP
Protocol: as §1, §2

[3] = target: T1, FcγRIIIa extracellular domain with …; assay: SPR (Biacore); He/Con for FcγRIIIa divided by He/Con for FcγRIIb
Protocol: as §1, §2

[4] = target: T3, FcgRIIIa F (FcγRIIIa type F) extracellular domain with C-terminal His tag (human, UniProt P08637 17-208); assay: SPR (Biacore); relative binding activity of the heterodimerized antibody with the alteration in one H chain
T3 construct: extracellular domain; also called FcγRIIIa F; 3aF; not shown: His tag attached to the C terminus
T3 sequence (P08637 17-208): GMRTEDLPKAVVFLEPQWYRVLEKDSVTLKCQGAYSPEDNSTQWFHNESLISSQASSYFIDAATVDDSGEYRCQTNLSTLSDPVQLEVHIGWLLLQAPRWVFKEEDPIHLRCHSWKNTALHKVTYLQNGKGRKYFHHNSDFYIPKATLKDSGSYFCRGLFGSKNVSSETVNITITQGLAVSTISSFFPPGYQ

T1 sequence (P08637 17-208): as above

B1: GpH7-A5/GpH7-B3 variant K334_13S/GpL16-k0 (antibody, human IgG1, kappa)
heavy 1: not shown
heavy 2: not shown
light: DIVMTQSPLSLPVTPGEPASISCQASESLVHSNRNTYLHWYLQKPGQSPQLLIYKVSNRFSGVPDRFSGSGSGTDFTLKISRVEAEDVGVYYCSQNTHVPPTFGQGTKVEIERTVAAPSVFIFPPSDEQLKSGTASVVCLLNNFYPREAKVQWKVDNALQSGNSQESVTEQDSKDSTYSLSSTLTLSKADYEKHKVYACEVTHQGLSSPVTKSFNRGEC
notes: Heterodimerized anti-glypican-3 IgG1 (He Ab); The mutation is in the GpH7-B3 chain only; also called He Ab with K334S in GpH7-B3
For B1, the “He/Con_3a (IIIa binding)” value [1] was 145 relative, GpH7-A5/GpH7-B3/GpL16-k0 = 100, the “He/Con_2b (IIb binding)” value [2] was 111 relative, GpH7-A5/GpH7-B3/GpL16-k0 = 100 and the “He_3a/2b (IIIa/IIb)” value [3] was 1.31 ratio.

B2: GpH7-A5/GpH7-B3 variant K334_14T/GpL16-k0 (antibody, human IgG1, kappa)
heavy 1: not shown
heavy 2: not shown
light: DIVMTQSPLSLPVTPGEPASISCQASESLVHSNRNTYLHWYLQKPGQSPQLLIYKVSNRFSGVPDRFSGSGSGTDFTLKISRVEAEDVGVYYCSQNTHVPPTFGQGTKVEIERTVAAPSVFIFPPSDEQLKSGTASVVCLLNNFYPREAKVQWKVDNALQSGNSQESVTEQDSKDSTYSLSSTLTLSKADYEKHKVYACEVTHQGLSSPVTKSFNRGEC
notes: Heterodimerized anti-glypican-3 IgG1 (He Ab); The mutation is in the GpH7-B3 chain only; also called He Ab with K334T in GpH7-B3
In the case of B2, the “He/Con_3a (IIIa binding)” value [1] is reported as 141 relative, GpH7-A5/GpH7-B3/GpL16-k0 = 100, the “He/Con_2b (IIb binding)” value [2] is reported as 115 relative, GpH7-A5/GpH7-B3/GpL16-k0 = 100 and the “He_3a/2b (IIIa/IIb)” value [3] is reported as 1.23 ratio.

B3: GpH7-A5/GpH7-B3 variant K334_15Y/GpL16-k0 (antibody, human IgG1, kappa)
heavy 1: not shown
heavy 2: not shown
light: DIVMTQSPLSLPVTPGEPASISCQASESLVHSNRNTYLHWYLQKPGQSPQLLIYKVSNRFSGVPDRFSGSGSGTDFTLKISRVEAEDVGVYYCSQNTHVPPTFGQGTKVEIERTVAAPSVFIFPPSDEQLKSGTASVVCLLNNFYPREAKVQWKVDNALQSGNSQESVTEQDSKDSTYSLSSTLTLSKADYEKHKVYACEVTHQGLSSPVTKSFNRGEC
notes: Heterodimerized anti-glypican-3 IgG1 (He Ab); The mutation is in the GpH7-B3 chain only; also called He Ab with K334Y in GpH7-B3
In the case of B3, the “He/Con_3a (IIIa binding)” value [1] is reported as 141 relative, GpH7-A5/GpH7-B3/GpL16-k0 = 100, the “He/Con_2b (IIb binding)” value [2] is reported as 109 relative, GpH7-A5/GpH7-B3/GpL16-k0 = 100 and the “He_3a/2b (IIIa/IIb)” value [3] is reported as 1.29 ratio.

B4: GpH7-A5/GpH7-B3 variant K334_19Q/GpL16-k0 (antibody, human IgG1, kappa)
heavy 1: not shown
heavy 2: not shown
light: DIVMTQSPLSLPVTPGEPASISCQASESLVHSNRNTYLHWYLQKPGQSPQLLIYKVSNRFSGVPDRFSGSGSGTDFTLKISRVEAEDVGVYYCSQNTHVPPTFGQGTKVEIERTVAAPSVFIFPPSDEQLKSGTASVVCLLNNFYPREAKVQWKVDNALQSGNSQESVTEQDSKDSTYSLSSTLTLSKADYEKHKVYACEVTHQGLSSPVTKSFNRGEC
notes: Heterodimerized anti-glypican-3 IgG1 (He Ab); The mutation is in the GpH7-B3 chain only; also called He Ab with K334Q in GpH7-B3
B4 was tested, and the “He/Con_3a (IIIa binding)” value [1] was 136 relative, GpH7-A5/GpH7-B3/GpL16-k0 = 100, the “He/Con_2b (IIb binding)” value [2] was 109 relative, GpH7-A5/GpH7-B3/GpL16-k0 = 100 and the “He_3a/2b (IIIa/IIb)” value [3] was 1.25 ratio.

B5: GpH7-A5/GpH7-B3 variant K334_20W/GpL16-k0 (antibody, human IgG1, kappa)
heavy 1: not shown
heavy 2: not shown
light: DIVMTQSPLSLPVTPGEPASISCQASESLVHSNRNTYLHWYLQKPGQSPQLLIYKVSNRFSGVPDRFSGSGSGTDFTLKISRVEAEDVGVYYCSQNTHVPPTFGQGTKVEIERTVAAPSVFIFPPSDEQLKSGTASVVCLLNNFYPREAKVQWKVDNALQSGNSQESVTEQDSKDSTYSLSSTLTLSKADYEKHKVYACEVTHQGLSSPVTKSFNRGEC
notes: Heterodimerized anti-glypican-3 IgG1 (He Ab); The mutation is in the GpH7-B3 chain only; also called He Ab with K334W in GpH7-B3
With B5 the “He/Con_3a (IIIa binding)” value [1] was 128 relative, GpH7-A5/GpH7-B3/GpL16-k0 = 100, the “He/Con_2b (IIb binding)” value [2] was 104 relative, GpH7-A5/GpH7-B3/GpL16-k0 = 100 and the “He_3a/2b (IIIa/IIb)” value [3] was 1.23 ratio.

B6: GpH7-A5/GpH7-B3 variant (H268D)/GpL16-k0 (antibody, human IgG1, kappa)
heavy 1: not shown
heavy 2: not shown
light: DIVMTQSPLSLPVTPGEPASISCQASESLVHSNRNTYLHWYLQKPGQSPQLLIYKVSNRFSGVPDRFSGSGSGTDFTLKISRVEAEDVGVYYCSQNTHVPPTFGQGTKVEIERTVAAPSVFIFPPSDEQLKSGTASVVCLLNNFYPREAKVQWKVDNALQSGNSQESVTEQDSKDSTYSLSSTLTLSKADYEKHKVYACEVTHQGLSSPVTKSFNRGEC
notes: also called He Ab H268_09D
For B6, the He/Con_3aF [4] was 195 % of GpH7-A5/GpH7-B3/GpL16-k0 (= 100).

B7: GpH7-A5/GpH7-B3 variant (A330F)/GpL16-k0 (antibody, human IgG1, kappa)
heavy 1: not shown
heavy 2: not shown
light: DIVMTQSPLSLPVTPGEPASISCQASESLVHSNRNTYLHWYLQKPGQSPQLLIYKVSNRFSGVPDRFSGSGSGTDFTLKISRVEAEDVGVYYCSQNTHVPPTFGQGTKVEIERTVAAPSVFIFPPSDEQLKSGTASVVCLLNNFYPREAKVQWKVDNALQSGNSQESVTEQDSKDSTYSLSSTLTLSKADYEKHKVYACEVTHQGLSSPVTKSFNRGEC
notes: also called He Ab A330_04F
B7 was tested, and the He/Con_3aF [4] was 144 % of GpH7-A5/GpH7-B3/GpL16-k0 (= 100).

B8: GpH7-A5/GpH7-B3 variant (A330M)/GpL16-k0 (antibody, human IgG1, kappa)
heavy 1: not shown
heavy 2: not shown
light: DIVMTQSPLSLPVTPGEPASISCQASESLVHSNRNTYLHWYLQKPGQSPQLLIYKVSNRFSGVPDRFSGSGSGTDFTLKISRVEAEDVGVYYCSQNTHVPPTFGQGTKVEIERTVAAPSVFIFPPSDEQLKSGTASVVCLLNNFYPREAKVQWKVDNALQSGNSQESVTEQDSKDSTYSLSSTLTLSKADYEKHKVYACEVTHQGLSSPVTKSFNRGEC
notes: also called He Ab A330_06M
For B8, the He/Con_3aF [4] was 139 % of GpH7-A5/GpH7-B3/GpL16-k0 (= 100).
